Laboratory results: patent publication US20240192215A1 (E AND S HEALTHCARE, published 2024)

Legend:
[1] = biological target: T1, Peptide_055 (human); test: peptide microarray, 5 ug/mL
T1 construct: 15-mer of hTrx1 on microarray
T1 peptide: IKPFFHSLSEKYSNV
Protocol: (§1) 5, 1, 0.2, 0.04, 0.008 and 0.0016 μg/mL serial dilutions were incubated on a single multi-well microarray slide at 30° C. for 1 hour. The slide includes 21 individual mini-arrays (one mini-array per sample dilution).
(§2) DyLight 650 was used as a label. False-positive binding to a peptide was evaluated by performing one additional control incubation in which only a secondary antibody was applied on the same microarray slide. Before performing each step, the microarrays were washed with a washing buffer.

[2] = biological target: T2, Peptide_052 (human); test: peptide microarray, 5 ug/mL
T2 construct: 15-mer of hTrx1 on microarray
T2 peptide: CKMIKPFFHSLSEKY
Protocol: as §1, §2

[3] = biological target: T3, Peptide_050 (human); test: peptide microarray, 5 ug/mL
T3 construct: 15-mer of hTrx1 on microarray
T3 peptide: GPCKMIKPFFHSLSE
Protocol: as §1, §2

[4] = biological target: T4, Peptide_053 (human); test: peptide microarray, 5 ug/mL
T4 construct: 15-mer of hTrx1 on microarray
T4 peptide: KMIKPFFHSLSEKYS
Protocol: as §1, §2

[5] = biological target: T5, Peptide_048 (human); test: peptide microarray, 5 ug/mL
T5 construct: 15-mer of hTrx1 on microarray
T5 peptide: WCGPCKMIKPFFHSL
Protocol: as §1, §2

[6] = biological target: T6, Peptide_057 (human); test: peptide microarray, 5 ug/mL
T6 construct: 15-mer of hTrx1 on microarray
T6 peptide: PFFHSLSEKYSNVIF
Protocol: as §1, §2

[7] = biological target: T7, Peptide_046 (human); test: peptide microarray, 5 ug/mL
T7 construct: 15-mer of hTrx1 on microarray
T7 peptide: ATWCGPCKMIKPFFH
Protocol: as §1, §2

[8] = biological target: T8, Peptide_054 (human); test: peptide microarray, 5 ug/mL
T8 construct: 15-mer of hTrx1 on microarray
T8 peptide: MIKPFFHSLSEKYSN
Protocol: as §1, §2

[9] = biological target: T9, Peptide_056 (human); test: peptide microarray, 5 ug/mL
T9 construct: 15-mer of hTrx1 on microarray
T9 peptide: KPFFHSLSEKYSNVI
Protocol: as §1, §2

[10] = biological target: T10, Peptide_047 (human); test: peptide microarray, 5 ug/mL
T10 construct: 15-mer of hTrx1 on microarray
T10 peptide: TWCGPCKMIKPFFHS
Protocol: as §1, §2

[11] = biological target: T11, Peptide_049 (human); test: peptide microarray, 5 ug/mL
T11 construct: 15-mer of hTrx1 on microarray
T11 peptide: CGPCKMIKPFFHSLS
Protocol: as §1, §2

[12] = biological target: T12, human thioredoxin-1 (Trx1) (human, UniProt P10599 1-105); test: ELISA on 200 ng coated hTrx1
T12 construct: also called hTrx1; hTRX1
T12 sequence (looked up): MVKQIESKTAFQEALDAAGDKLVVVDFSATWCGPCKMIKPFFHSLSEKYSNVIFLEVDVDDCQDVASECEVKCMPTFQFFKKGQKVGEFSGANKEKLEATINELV
Protocol: A reaction solution was removed, followed by washing five times with 200 μL of 1×PBST. […] A reaction solution was removed, and washed five times with 200 μL of 1×PBST. 100 μL of a color reagent was dispensed into each well, and after a 10-minute reaction, 50 μL of 2.5M H₂SO₄ was dispensed into each well. After color development, the extent of the color development was assessed using an ELISA reader.

[13] = biological target: T1, Peptide_055; test: peptide microarray, head 0.08 ug (text 0.008 ug/mL)
Protocol: as §1, §2

[14] = biological target: T2, Peptide_052; test: as above
Protocol: as §1, §2

[15] = biological target: T3, Peptide_050; test: as above
Protocol: as §1, §2

[16] = biological target: T4, Peptide_053; test: as above
Protocol: as §1, §2

[17] = biological target: T5, Peptide_048; test: as above
Protocol: as §1, §2

[18] = biological target: T6, Peptide_057; test: as above
Protocol: as §1, §2

[19] = biological target: T7, Peptide_046; test: as above
Protocol: as §1, §2

[20] = biological target: T8, Peptide_054; test: as above
Protocol: as §1, §2

[21] = biological target: T9, Peptide_056; test: as above
Protocol: as §1, §2

[22] = biological target: T10, Peptide_047; test: as above
Protocol: as §1, §2

[23] = biological target: T11, Peptide_049; test: as above
Protocol: as §1, §2

[24] = biological target: T5, Peptide_048; test: peptide microarray, 0.0016 ug/mL
Protocol: as §1, §2

[25] = biological target: T7, Peptide_046; test: peptide microarray, 0.0016 ug/mL
Protocol: as §1, §2

[26] = biological target: T8, Peptide_054; test: peptide microarray, 0.0016 ug/mL
Protocol: as §1, §2

[27] = biological target: T10, Peptide_047; test: peptide microarray, 0.0016 ug/mL
Protocol: as §1, §2

[28] = biological target: T11, Peptide_049; test: peptide microarray, 0.0016 ug/mL
Protocol: as §1, §2

[29] = biological target: T12, human thioredoxin-1 (Trx1); test: one site - total fit (Prism) of the ELISA of panel (a); the cell has no unit, the concentrations of panel (a) are in nM; paragraph 183 prints it rounded as 1.1x10^-11 [b]
Protocol: 100 μl of a coating buffer and 100 ng of Trx1 were mixed and dispensed to each well, and then reacted at 4° C. for 16 hours or more. After the reaction solution was removed, 200 μl of PBSA was dispensed to each well and reacted at 37° C. for 120 minutes. […] After the reaction solution was removed, washing was performed by dispensing 200 μl of a washing buffer to each well. The above-described process was performed two times.
After the reaction solution was removed, washing was performed by dispensing 200 μl of a washing buffer to each well. The above-described process was performed three times.

B1: monoclonal antibody B266-1 (antibody, human IgG1)
light: QIVLTQSPAIMSASPGEKVTMTCSASSRISYMYWYQQKPGTSPKRWIYDTSKLASGVPARFSGSGSGTSYSLTISTMEAEDAATYYCHQRSSYPTFGAGTKLELKSVAAPSVFIFPPSDEQLKSGTASVVCLLNNFYPREAKVQWKVDNALQSGNSQESVTEQDSKDSTYSLSSTLTLSKADYEKHKVYACEVTHQGLSSPVTKSFNRGEC
heavy: not shown
notes: B266 with the Fc part changed to human IgG1; also called B266-1 (Trx1-hIgG1); B266-1 (hTrx1-hIgG1)
[1]
  signal (blank-control = 1): 2.08
[2]
  signal (blank-control = 1): 3.84
[3]
  signal (blank-control = 1): 2.19
[4]
  signal (blank-control = 1): 2.45
[5]
  signal (blank-control = 1): 6.1
[6]
  signal (blank-control = 1): 2.39
[7]
  signal (blank-control = 1): 6.41
[8]
  signal (blank-control = 1): 2.36
[9]
  signal (blank-control = 1): 2.89
[10]
  signal (blank-control = 1): 5.58
[11]
  signal (blank-control = 1): 2.89
[12]
  Kd: 0.21 nM
[13]
  signal (blank-control = 1): 0.85
[14]
  signal (blank-control = 1): 1.12
[15]
  signal (blank-control = 1): 0.52
[16]
  signal (blank-control = 1): 1.44
[17]
  signal (blank-control = 1): 7.25
[18]
  signal (blank-control = 1): 2.09
[19]
  signal (blank-control = 1): 1.64
[20]
  signal (blank-control = 1): 0.71
[21]
  signal (blank-control = 1): 1.07
[22]
  signal (blank-control = 1): 1.11
[23]
  signal (blank-control = 1): 1.31
[24]
  signal (blank-control = 1): 7.61
[25]
  signal (blank-control = 1): 1.79
[26]
  signal (blank-control = 1): 0.73
[27]
  signal (blank-control = 1): 1.18
[28]
  signal (blank-control = 1): 1.37
[29]
  Kd: 0.0112 nM

B2: monoclonal antibody B264 (antibody, mouse IgG1, kappa, V domains shown)
VH: QVQLQQSGAELARPGASVKMSCKASGYTFTSYTMHWVKQRPGQGLEWIGYINPTSDYTNYNQKFKDKATLTADKSSSTAYMQLSSLTSEDSAVYFCASEGGFLYYFDYWGQGTTLTVSS
VL: DVLMTQTPLSLPVSLGDQASISCRSSQSIVHSNGNTYLEWYLQKPGQSPKLLIYKVSNRFSGVPDRFSGSGSGTDFTLKISRVEAEDLGVYYCFQGSHVPYTFGGGTKLEIKR
notes: also called AB264; B264 (Trx1-mIgG1)
[1]
  signal (blank-control = 1): 3.57
[2]
  signal (blank-control = 1): 5.14
[3]
  signal (blank-control = 1): 0.54
[4]
  signal (blank-control = 1): 6.49
[5]
  signal (blank-control = 1): 2.15
[6]
  signal (blank-control = 1): 2.44
[7]
  signal (blank-control = 1): 6.2
[8]
  signal (blank-control = 1): 1.46
[9]
  signal (blank-control = 1): 2.86
[10]
  signal (blank-control = 1): 4.89
[11]
  signal (blank-control = 1): 1.11
[12]
  Kd: 0.17 nM
  reaction value (OD 490) relative to B266-1: ~50%
[13]
  signal (blank-control = 1): 0.99
[14]
  signal (blank-control = 1): 1.23
[15]
  signal (blank-control = 1): 0.65
[16]
  signal (blank-control = 1): 1.76
[17]
  signal (blank-control = 1): 7.68
[18]
  signal (blank-control = 1): 2.27
[19]
  signal (blank-control = 1): 2.11
[20]
  signal (blank-control = 1): 0.63
[21]
  signal (blank-control = 1): 1.11
[22]
  signal (blank-control = 1): 1.52
[23]
  signal (blank-control = 1): 1.43
[24]
  signal (blank-control = 1): 7.46
[25]
  signal (blank-control = 1): 1.69
[26]
  signal (blank-control = 1): 0.55
[27]
  signal (blank-control = 1): 1.15
[28]
  signal (blank-control = 1): 1.18
